Drawing on publication PMC7402679, this text covers stoichiometry N for one substance.

Values joined by “and” are separate entries in the source; they are usually repeats but may differ in a detail not shown here. Equal entries are not always repeated.

The test addresses HA-tagged MnPV L1_(SHORT), expressed in Mastomys-derived fibroblasts (Mastomys natalensis papillomavirus (MnPV)). The test is described as follows: SDS-PAGE and western blot of high-MW (multimer) bands; lysates of transfected MaFi132 cells in 1.25x Laemmli buffer (2.5% SDS, 2.5% beta-mercaptoethanol), 95 C 5 min; 8% SDS-PAGE; detected with mAb 2D11, Mastomys serum mix and anti-HA.

Take “HA-tagged MnPV L1_(SHORT), expressed in Mastomys-derived fibroblasts (natural protein)”: the stoichiometry N was 2 and 3.
